From article PMC4451881, “Functional display of heterotetrameric human protein kinase CK2 on Escherichia coli: a novel tool for drug discovery” (Microbial Cell Factories, 2015)

Target: T1, CK2α-AT, autotransporter fusion protein with the human protein kinase CK2 α-subunit as passenger domain (human, UniProt P68400 2-391)
T1 sequence (looked up): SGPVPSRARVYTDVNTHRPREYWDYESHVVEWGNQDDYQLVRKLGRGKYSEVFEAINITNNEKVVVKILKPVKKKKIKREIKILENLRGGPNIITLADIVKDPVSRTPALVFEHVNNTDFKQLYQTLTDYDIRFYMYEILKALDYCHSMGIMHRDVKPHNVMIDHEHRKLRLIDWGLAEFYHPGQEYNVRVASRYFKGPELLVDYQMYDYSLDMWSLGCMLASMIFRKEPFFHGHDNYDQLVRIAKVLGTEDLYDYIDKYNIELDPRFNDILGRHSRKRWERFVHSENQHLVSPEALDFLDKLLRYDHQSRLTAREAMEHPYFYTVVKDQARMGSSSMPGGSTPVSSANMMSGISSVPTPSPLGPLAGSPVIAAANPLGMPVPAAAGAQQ
Assay: cell-based or functional assay

B1: CK2β-AT, autotransporter fusion protein with the human protein kinase CK2 β-subunit as passenger domain (natural protein)
chain: not shown
radiometric whole-cell kinase activity normalised to the expression level of CK2α-AT, cells co-displaying both subunits against cells displaying CK2α alone: > 5 fold
